Measured values taken from publication PMC4882601, “Binding of Human Fibrinogen to MRP Enhances Streptococcus suis Survival in Host Blood in a αXβ2 Integrin-dependent Manner” (Scientific Reports, 2016).

T1: human fibrinogen (human, UniProt P02671-2 20-644; P02675 31-491; P02679-2 27-437, biotin on hFg (which chain is not told) in the ELISA with immobilised MRP)
T1 construct: Fibrinogen Aα chain, human (63.5 kDa band); Fibrinogen Bβ chain, human (56 kDa band); Fibrinogen γ chain, human (47 kDa band); Three pairs of Aα, Bβ and γ chains; also called hFg; Fg; source: bought: Merck; copies: 2 + 2 + 2
T1 sequence (looked up) 1: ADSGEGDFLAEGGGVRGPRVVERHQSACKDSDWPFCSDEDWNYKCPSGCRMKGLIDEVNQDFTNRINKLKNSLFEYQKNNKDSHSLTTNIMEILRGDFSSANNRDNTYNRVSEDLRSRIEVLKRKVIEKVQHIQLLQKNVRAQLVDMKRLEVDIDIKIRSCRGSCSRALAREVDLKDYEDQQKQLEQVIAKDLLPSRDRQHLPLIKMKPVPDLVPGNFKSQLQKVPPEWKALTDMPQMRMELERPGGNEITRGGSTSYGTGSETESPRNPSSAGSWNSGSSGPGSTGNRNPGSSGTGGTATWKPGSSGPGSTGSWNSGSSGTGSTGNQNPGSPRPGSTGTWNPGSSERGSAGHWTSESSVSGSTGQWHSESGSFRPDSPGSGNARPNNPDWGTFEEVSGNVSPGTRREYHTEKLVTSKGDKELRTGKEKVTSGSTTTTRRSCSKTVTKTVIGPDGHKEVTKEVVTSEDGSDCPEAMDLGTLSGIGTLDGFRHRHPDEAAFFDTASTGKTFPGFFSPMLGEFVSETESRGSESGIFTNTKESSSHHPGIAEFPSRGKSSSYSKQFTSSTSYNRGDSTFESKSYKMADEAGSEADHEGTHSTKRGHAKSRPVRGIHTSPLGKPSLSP
T1 sequence (looked up) 2: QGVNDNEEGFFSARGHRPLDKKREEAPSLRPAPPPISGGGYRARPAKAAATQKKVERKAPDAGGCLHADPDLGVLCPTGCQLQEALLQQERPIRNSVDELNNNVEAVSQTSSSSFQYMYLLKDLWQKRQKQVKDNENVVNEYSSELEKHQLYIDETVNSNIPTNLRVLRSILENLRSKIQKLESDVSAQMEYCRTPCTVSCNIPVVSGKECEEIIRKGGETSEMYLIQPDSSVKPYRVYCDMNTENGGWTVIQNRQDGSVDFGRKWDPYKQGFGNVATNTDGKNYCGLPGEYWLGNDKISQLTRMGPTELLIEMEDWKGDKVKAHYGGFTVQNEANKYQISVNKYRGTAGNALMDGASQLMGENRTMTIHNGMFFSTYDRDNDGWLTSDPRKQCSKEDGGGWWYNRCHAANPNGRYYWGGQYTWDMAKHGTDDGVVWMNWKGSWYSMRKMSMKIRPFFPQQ
T1 sequence (looked up) 3: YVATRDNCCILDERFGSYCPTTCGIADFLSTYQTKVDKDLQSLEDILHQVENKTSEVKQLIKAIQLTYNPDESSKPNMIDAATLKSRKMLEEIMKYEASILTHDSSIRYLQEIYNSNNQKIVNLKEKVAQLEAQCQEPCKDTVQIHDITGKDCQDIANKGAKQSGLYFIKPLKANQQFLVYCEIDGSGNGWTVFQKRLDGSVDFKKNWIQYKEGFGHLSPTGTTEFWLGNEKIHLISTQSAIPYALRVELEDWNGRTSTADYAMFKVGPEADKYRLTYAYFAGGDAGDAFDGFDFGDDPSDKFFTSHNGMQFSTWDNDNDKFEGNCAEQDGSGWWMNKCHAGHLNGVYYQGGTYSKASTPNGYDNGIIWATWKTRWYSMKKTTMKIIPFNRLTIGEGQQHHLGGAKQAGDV

T2: hisMRP-N (a.a. 48-721, the N-terminus of muramidase-released protein) (Streptococcus suis serotype 2 strain …, UniProt P32653 48-721, biotin (in the far-Western and on the BLI biosensors))
T2 chain: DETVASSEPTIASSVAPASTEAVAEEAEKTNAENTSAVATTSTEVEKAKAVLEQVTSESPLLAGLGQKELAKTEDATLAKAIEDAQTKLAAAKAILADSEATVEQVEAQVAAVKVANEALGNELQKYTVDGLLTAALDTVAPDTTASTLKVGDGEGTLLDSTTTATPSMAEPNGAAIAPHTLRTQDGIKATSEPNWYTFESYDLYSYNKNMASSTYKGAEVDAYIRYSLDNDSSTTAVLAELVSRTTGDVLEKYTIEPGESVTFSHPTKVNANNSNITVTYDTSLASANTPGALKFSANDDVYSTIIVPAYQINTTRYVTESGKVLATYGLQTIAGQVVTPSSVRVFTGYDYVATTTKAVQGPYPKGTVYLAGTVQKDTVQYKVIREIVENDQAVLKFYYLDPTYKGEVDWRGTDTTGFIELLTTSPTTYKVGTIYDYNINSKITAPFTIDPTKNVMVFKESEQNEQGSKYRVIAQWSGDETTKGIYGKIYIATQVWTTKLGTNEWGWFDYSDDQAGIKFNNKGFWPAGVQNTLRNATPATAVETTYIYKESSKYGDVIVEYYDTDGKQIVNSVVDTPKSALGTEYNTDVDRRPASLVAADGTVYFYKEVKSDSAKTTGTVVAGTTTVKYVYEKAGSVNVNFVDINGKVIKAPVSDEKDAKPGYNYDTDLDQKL

B1: hisMRP-N (a.a. 48-721, the N-terminus of muramidase-released protein) (domain or fragment)
chain: T2 chain
modifications: biotin (in the far-Western and on the BLI biosensors)
notes: Muramidase-released protein (MRP) of Streptococcus suis serotype 2 strain 05ZYH33, gene SSU05_0753, residues 48-721; also called hisMRP-N_(48-721); source: cloned into pET-28a, expressed, purified by Ni-chelating chromatography
B2: human fibrinogen (complex)
chain 1: T1 sequence (looked up) 1
chain 2: T1 sequence (looked up) 2
chain 3: T1 sequence (looked up) 3
modifications: biotin on hFg (which chain is not told) in the ELISA with immobilised MRP

Experiments:
human fibrinogen = target: T1, human fibrinogen; test: BLI; biotinylated MRP-N proteins immobilised on streptavidin biosensors, hFg, Fg-D or Fg-E as analyte, PBST, 1:1 binding model; conditions: both partners purified
[1] = target: T2, hisMRP-N (a.a. 48-721, the N-terminus …); test: BLI

Binder	Kd (human fibrinogen) [nM]	koff [1] [s⁻¹]
B1	340	
B2		0.0989
